Data as given in paper PMC12008772, “Transcription Factor SsNdt80b Maintains Optimal Expression of SsSNF1 to Modulate Growth and Pathogenicity in Sclerotinia sclerotiorum”.

Target: T1, SsNdt80b-His (Sclerotinia sclerotiorum, UniProt A0A1D9PYE1 1-599)
T1 sequence: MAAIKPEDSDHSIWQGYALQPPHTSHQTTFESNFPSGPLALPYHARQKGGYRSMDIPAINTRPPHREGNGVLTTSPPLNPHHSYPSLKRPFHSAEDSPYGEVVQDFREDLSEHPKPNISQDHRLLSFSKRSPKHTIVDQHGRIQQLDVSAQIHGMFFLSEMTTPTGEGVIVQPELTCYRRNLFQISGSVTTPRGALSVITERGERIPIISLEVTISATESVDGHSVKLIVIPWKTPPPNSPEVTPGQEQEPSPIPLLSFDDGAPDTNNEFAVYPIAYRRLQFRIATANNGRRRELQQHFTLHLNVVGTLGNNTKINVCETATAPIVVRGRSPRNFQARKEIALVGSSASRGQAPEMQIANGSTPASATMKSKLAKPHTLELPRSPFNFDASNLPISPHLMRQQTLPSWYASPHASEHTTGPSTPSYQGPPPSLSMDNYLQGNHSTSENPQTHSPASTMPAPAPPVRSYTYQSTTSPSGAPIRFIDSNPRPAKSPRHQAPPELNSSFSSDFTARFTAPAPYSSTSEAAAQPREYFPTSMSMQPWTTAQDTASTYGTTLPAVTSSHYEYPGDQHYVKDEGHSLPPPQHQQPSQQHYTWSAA
Assay: EMSA; LightShift Chemiluminescence EMSA Kit binding buffer (composition not given); protein 5 min on ice, then probe 30 min at room temperature; 6% native PAGE
Details: protein: recombinant; tags: His; label: 5'-biotin on strand 1; printed biotin strand is 39 nt, reverse strand 40 nt: 1 nt 5' overhang (T) on strand 2; unlabelled forward oligo S65 is 40 nt and blunt with S64

B1: P-SsSNF1 biotin probe (dsDNA)
DNA 1: TGAAGAGCAGCTGGAACCACAAATCAACTTTTCCTTTAA
DNA 2: TTTAAAGGAAAAGTTGATTTGTGGTTCCAGCTGCTCTTCA
binding result: binds
